Measurements from US20220195070A1 (Chugai, published 2022).
Read-outs that look alike come from different tables or passages of the source.

What was measured:
G4d [1] = biological target: T1, G4d (human, UniProt P01861 1-325 = IgG part); assay: ELISA, OD405 against dose (ng/mL, log axis 1-100)
T1 construct: Construct used in the ELISA is not described beyond the constant region

SG115v2 [2] = biological target: T2, SG115v2 (human, UniProt P01857 1-328 = IgG part); assay: ELISA, OD405 against dose (ng/mL, log axis 1-100)
T2 construct: Carries the CH3 modifications of SG115 (Leu428, Ala434, Arg438, Glu440, EU); Construct used in the ELISA is not described beyond the constant region; also called modified IgG heavy chain constant region SG115v2

SG115v1 [3] = biological target: T3, SG115v1 (human, UniProt P01857 1-328 = IgG part); assay: ELISA, OD405 against dose (ng/mL, log axis 1-100)
T3 construct: Carries the CH2 modifications of SG115 (Arg235, Arg236, Lys239, EU); Construct used in the ELISA is not described beyond the constant region; also called modified IgG heavy chain constant region SG115v1

Glm [4] = biological target: T4, Glm (human, UniProt P01857 1-328 = IgG part); assay: ELISA, OD405 against dose (ng/mL, log axis 1-100)
T4 construct: Construct used in the ELISA is not described beyond the constant region; also called G1m

SG115 [5] = biological target: T5, SG115 (human, UniProt P01857 1-328 = IgG part); assay: ELISA, OD405 against dose (ng/mL, log axis 1-100)
T5 construct: also called modified IgG heavy chain constant region SG115

Anti-IL-8 Antibody = biological target: T6, Anti-IL-8 Antibody; assay: SPR (Biacore T200), 25 C, pH 7.4; SKA antibody captured by anti-rabbit IgG, Anti-IL-8 Antibody injected 0-800 nM
T6 construct: also called anti-human IL-8 antibody; Fc-Mutated Antibody
Description: To confirm the binding ability of Anti Fc-Mutation Antibodies that show selective binding to SG115v1, KD values of Anti Fc-Mutation Antibodies against Anti-IL-8 Antibody at pH 7.4 were determined at 25 degrees C. using Biacore T200 instrument (GE Healthcare). Sequence of Fc region of Anti-IL-8 Antibody has high similarity to that of Anti-hC5 Antibody.
Anti-rabbit IgG (Abbexa) was immobilized onto FC1 and 2 of a CMS sensor chip using an amine coupling kit (GE Healthcare). For the immobilization of anti-rabbit IgG, HBS-EP+, pH7.4 (GE Healthcare) buffer was used as running buffer. After the immobilization, running buffer was changed to Phosphate pH7.4 buffer (50 mM phosphate buffer containing 150 mM NaCl and 0.05 w/v % P-20, pH 7.4). Each Anti Fc-Mutation Antibody was captured onto FC2 of the sensor chip by anti-rabbit IgG. The amount of Anti Fc-Mutation Antibody to be captured was adjusted so that the number of resonance units (RU) was 100. Anti-IL-8 Antibody was injected at 0, 100, 400, and 800 nM at 10 micro L/min. Sensor surface was regenerated after each cycle with 10 mM Glycine-HCl, pH2.0, which was injected at a flow rate of 30 micro L/min. KD values were obtained using Biacore T200 Evaluation software, version 2.0 (GE Healthcare).

G4d [6] = biological target: T1, G4d; assay: ELISA, OD405 against dose (ng/mL, log axis 1-100); remark: listed apart in the source
SG115v2 [7] = biological target: T2, SG115v2; assay: ELISA, OD405 against dose (ng/mL, log axis 1-100); remark: listed apart in the source
SG115v1 [8] = biological target: T3, SG115v1; assay: ELISA, OD405 against dose (ng/mL, log axis 1-100); remark: listed apart in the source
Glm [9] = biological target: T4, Glm; assay: ELISA, OD405 against dose (ng/mL, log axis 1-100); remark: listed apart in the source
SG115 [10] = biological target: T5, SG115; assay: ELISA, OD405 against dose (ng/mL, log axis 1-100); remark: listed apart in the source

T1 sequence (P01861 1-325 S108P limits assumed): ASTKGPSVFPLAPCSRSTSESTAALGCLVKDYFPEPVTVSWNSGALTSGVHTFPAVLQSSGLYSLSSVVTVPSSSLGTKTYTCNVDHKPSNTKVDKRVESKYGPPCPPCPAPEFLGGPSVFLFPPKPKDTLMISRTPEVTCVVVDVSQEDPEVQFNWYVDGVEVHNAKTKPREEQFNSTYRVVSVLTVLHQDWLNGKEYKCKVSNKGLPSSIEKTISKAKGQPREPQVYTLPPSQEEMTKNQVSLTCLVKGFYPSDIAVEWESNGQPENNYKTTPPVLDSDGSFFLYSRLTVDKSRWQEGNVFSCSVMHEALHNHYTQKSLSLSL
T2 sequence (P01857 other isoform, or with tags, fused parts or gaps limits assumed): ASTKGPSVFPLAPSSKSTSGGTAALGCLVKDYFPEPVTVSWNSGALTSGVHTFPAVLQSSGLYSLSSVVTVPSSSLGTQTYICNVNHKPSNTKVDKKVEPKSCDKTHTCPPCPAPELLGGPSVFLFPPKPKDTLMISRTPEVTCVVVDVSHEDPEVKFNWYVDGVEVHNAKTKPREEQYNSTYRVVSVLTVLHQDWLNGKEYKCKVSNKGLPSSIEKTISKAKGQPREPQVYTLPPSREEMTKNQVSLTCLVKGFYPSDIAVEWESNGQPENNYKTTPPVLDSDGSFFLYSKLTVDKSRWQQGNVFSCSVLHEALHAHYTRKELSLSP
T5 sequence (P01857 other isoform, or with tags, fused parts or gaps limits assumed): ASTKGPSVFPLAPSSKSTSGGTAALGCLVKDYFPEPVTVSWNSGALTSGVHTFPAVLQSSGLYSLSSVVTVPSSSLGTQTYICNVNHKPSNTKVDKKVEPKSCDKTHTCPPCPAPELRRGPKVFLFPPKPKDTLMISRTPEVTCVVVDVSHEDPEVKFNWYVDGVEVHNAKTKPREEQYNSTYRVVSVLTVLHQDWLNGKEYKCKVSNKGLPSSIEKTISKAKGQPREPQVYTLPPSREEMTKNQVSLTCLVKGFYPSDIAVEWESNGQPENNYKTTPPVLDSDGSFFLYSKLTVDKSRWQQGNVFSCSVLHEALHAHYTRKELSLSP
T4 sequence (P01857 1-328 D239E/L241M limits assumed): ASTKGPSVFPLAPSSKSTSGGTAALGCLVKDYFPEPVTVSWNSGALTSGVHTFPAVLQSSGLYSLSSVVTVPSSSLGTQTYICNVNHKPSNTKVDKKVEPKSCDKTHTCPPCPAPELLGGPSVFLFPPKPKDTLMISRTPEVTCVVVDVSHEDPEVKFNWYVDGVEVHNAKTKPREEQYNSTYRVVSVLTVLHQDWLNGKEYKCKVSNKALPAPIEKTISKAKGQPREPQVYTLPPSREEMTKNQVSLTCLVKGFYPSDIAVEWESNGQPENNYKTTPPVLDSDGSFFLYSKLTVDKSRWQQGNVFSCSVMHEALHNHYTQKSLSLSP
T6 sequence (constant, as listed by the source limits assumed): as the sequence (P01857 1-328 D239E/L241M limits assumed) above, with L118R, G119R, A210G, A213S, P214S, M311L, N317A, Y319T, Q321R, S323E counted along it
T3 sequence (P01857 other isoform, or with tags, fused parts or gaps limits assumed): as the sequence (P01857 1-328 D239E/L241M limits assumed) above, with L118R, G119R, S122K, A210G, A213S, P214S counted along it

B1: SKA0117 (antibody, V domains shown)
VH: QSLEESGGDLVKPEGSLTLTCTASGFSFSSSHYMCWVRQAPGKGLEWIACIYAGSSDNTYYASWAKGRFTISKTSSTTVTLQMTSLTAADTATYFCARDTYGYVGYASAGGFFNLWGPGTLVTVSS
VL: ALVMTQTPASVSAAVGGTVTINCQASHNIYSVLAWYQQKPGQRPRLLIYGASNLESGVPSRFKGSGSGTEYTLTISDLECDDAATYYCQSAYYSSSTGDNAFGGGTEVVVKG
notes: Recombinant rabbit monoclonal from B-cell cloning, expressed in FreeStyle 293-F cells; the first screen used B-cell culture supernatant; also called Anti-SG115 Antibody; rabbit Anti Fc-Mutation Antibody
binding result (G4d [1]): no binding (tested: about 60 ng/mL)
binding result (SG115v2 [2]): binds
binding result (SG115v1 [3]): no binding (tested: about 60 ng/mL)
binding result (Glm [4]): no binding (tested: about 60 ng/mL)
binding result (SG115 [5]): binds

B2: SKA0141 (antibody, V domains shown)
VH: QSLEESGGDLVKPGASLTLTCTASGFSFSSSYYMCWVRQAPGKGLEWIACIYAGSSGSTYYASWAKGRFTISKTSSTTVTLQMTSLTAADTATYFCARDGDENMLVGGYFNLWGPGTLVTVSS
VL: ALVMTQTPSSVSAAVGGTVTINCQASHNIYSNLAWYQQKPGQRPKLLIYGASNLESGVPSRFKGSGSGTEYTLTISDLECDDAATYYCQSAYYSSNAGYNAFGGGTEVVVKG
notes: as for B1
binding result (G4d [1]): no binding (tested: about 60 ng/mL)
binding result (SG115v2 [2]): binds
binding result (SG115v1 [3]): no binding (tested: about 60 ng/mL)
binding result (Glm [4]): no binding (tested: about 60 ng/mL)
binding result (SG115 [5]): binds

B3: SKA0127 (antibody, V domains shown)
VH: QSVEESGGRLVTPGTPLTLTCTVSGIDLSTYAMTWVRQAPGKGLEYIGYINGGGSAYYASWVNGRFTISKTSTTADLKITSPTTEDTATYFCARGPVGSYHRIWGPGTLVTVSS
VL: ALVMTQTPSSVSEPVGGTVTINCRASEDIESYLAWYQQKPGQPPKLLIYATSNLETGVPSRFKGSGSGTDYTLTISGVQCADAATYYCQGYYELSSIDNNAFGGGTEVVVKG
notes: as for B1
binding result (G4d [1]): no binding (tested: about 60 ng/mL)
binding result (SG115v2 [2]): no binding (tested: about 60 ng/mL)
binding result (SG115v1 [3]): binds
binding result (Glm [4]): no binding (tested: about 60 ng/mL)
binding result (SG115 [5]): binds
Kd (Anti-IL-8 Antibody): 45.4 nM
koff (Anti-IL-8 Antibody): 0.000804 s⁻¹
kon (Anti-IL-8 Antibody): 17700 M⁻¹ s⁻¹

B4: SKA0016 (antibody, V domains shown)
VH: QEQLVESGGGLVQPEGSLTLTCTASGFSFSSSDYMCWVRQAPGKGLEWIACIYIGSNGDTFYASWAKGRFTISKTSSTTVTLQMTSLTAADTATYFCARDSRRADDYGTRLDLWGQGTLVTVSS
VL: DIVMTQTPSSVSAAVGGTVTIKCQASQNIYRNLAWYQQKPGQPPKLLIYQASKLESGVPSRFKGSGSGTEFTLTISDLDCDDAASYYCQSISYISSGDTFFWAFGGGTEVVVKG
notes: as for B1
Kd (Anti-IL-8 Antibody): 60 nM
koff (Anti-IL-8 Antibody): 0.00071 s⁻¹
kon (Anti-IL-8 Antibody): 11800 M⁻¹ s⁻¹
binding result (G4d [6]): no binding (tested: about 60 ng/mL)
binding result (SG115v2 [7]): no binding (tested: about 60 ng/mL)
binding result (SG115v1 [8]): binds
binding result (Glm [9]): no binding (tested: about 60 ng/mL)
binding result (SG115 [10]): binds

B5: SKA0054 (antibody, V domains shown)
VH: QSLEESGGGLVQPEGSLTLTCTASGFSFSSSFWICWVRQAPGKGLEWLACIDAGSSDNTYYANWAKGRFTISKTSSTTVTLQMTSLTDADTATYFCARDRDAAGDAGYGYATSFNLWGPGTLVTVSS
VL: AIDMTQTPSSVSAAVGGTVTINCQASESIYSNLAWYQQKPGQRPKLLIYLASTLASGVPSRFKGSGSGTEFTLTISDLECADAATYYCQSVYYDSRGDTFFWAFGGGTEVVVKG
notes: as for B1
binding result (G4d [1]): no binding (tested: about 60 ng/mL)
binding result (SG115v2 [2]): no binding (tested: about 60 ng/mL)
binding result (SG115v1 [3]): binds
binding result (Glm [4]): no binding (tested: about 60 ng/mL)
binding result (SG115 [5]): binds
Kd (Anti-IL-8 Antibody): 96.8 nM
koff (Anti-IL-8 Antibody): 0.000966 s⁻¹
kon (Anti-IL-8 Antibody): 9980 M⁻¹ s⁻¹

B6: SKA0171 (antibody, V domains shown)
VH: QSLEESGGGLVQPEGSLTLSCTASGFSFSSSYYMCWVRQAPGKGLEWIACIYGGNSVITYYANWAKGRFTISETSSTTVTLQMTSLTAADTATYFCAREVHYDYLYTTYGYANLWGPGTLVTVSS
VL: AIKMTQTPASVSAVVGGTVTINCQASETIYSGLAWYQQKPGQPPKLLIYDTANLETGVSSRFKGSGSGTEYTLTISDLECDDAATYFCLYAYYSGGSADNAFGGGTEVVVKG
notes: as for B1
binding result (G4d [1]): no binding (tested: about 60 ng/mL)
binding result (SG115v2 [2]): binds
binding result (SG115v1 [3]): no binding (tested: about 60 ng/mL)
binding result (Glm [4]): no binding (tested: about 60 ng/mL)
binding result (SG115 [5]): binds

B7: SKA0052 (antibody, V domains shown)
VH: QSLEESGGDLVKSGASLTLTCTASGFSFSSSYYMCWVRQAPGKGLEWIACIYTGSNGDTYYASWANGRFTISKASSTTVTLQMTSLTAADTATYFCARYTYDDDGDYTSFNLWGPGTLVTVSS
VL: ALVMTQTPSSVSADVGGTVTINCQASQNIYRNLAWYQQKPGQRPKLLIYGASNLEPGVPSRFKGSGSGTEFTLTISDLECDDAATYYCQSVGYSGSVDTFFYAFGGGTEVVVKG
notes: as for B1
binding result (G4d [1]): no binding (tested: about 60 ng/mL)
binding result (SG115v2 [2]): no binding (tested: about 60 ng/mL)
binding result (SG115v1 [3]): binds
binding result (Glm [4]): no binding (tested: about 60 ng/mL)
binding result (SG115 [5]): binds
Kd (Anti-IL-8 Antibody): 47 nM
koff (Anti-IL-8 Antibody): 0.00431 s⁻¹
kon (Anti-IL-8 Antibody): 91700 M⁻¹ s⁻¹
